Assay results taken from patent US20250296971A1, “GASTRIC INHIBITORY PEPTIDE RECEPTOR LIGANDS” (priority 2021, published 2025).
*1 amine or outer side, *2 acyl side, *3 side chain or, on linkers, in order; H or OH if unused. Bridges are numbered along the chain shown (N, C = ends). Primed or numbered codes have the meaning given here. Where no end group is shown, it is not given here. Side-chain parts run from the residue outwards. [ ]: non-standard residue; d: D form. The star is where a group is joined. EuDOTA = DOTA europium complex, O=C([O-])CN1CCN(CC(=O)[O-])CCN(CC(=O)*)CCN(CC(=O)[O-])CC1.[Eu+3]; Ttds = 1,13-diamino-4,7,10-trioxatridecan-succinamic acid, NCCCOCCOCCOCCCNC(=O)CCC(=O)*; NOPO = NOPO chelator, O=C(CCP(=O)(O)CN1CCN(CP(=O)(O)CO)CCN(CP(=O)(O)CO)CC1)*; DOTA(In) = O=C1CN2CCN3CCN(CC(=O)*)CCN(CC2)CC(=O)[O][In]([O]1)[O]C(=O)C3; NH(1-deoxy-D-glucityl) = OC[C@@H](O)[C@@H](O)[C@H](O)[C@@H](O)CN*; (dE)(AGLU) = D-glutamic acid bearing 1-amino-1-deoxy-D-glucitol; APAc″ = 4-amino-1-carboxymethylpiperidine, NC1CCN(CC(=O)*)CC1; dE(AGLU) = D-glutamic acid bearing 1-amino-1-deoxy-D-glucitol; Ttds(4) = 1,13-diamino-4,7,10-trioxatridecan-succinamic acid; Pro(trans-4-NH2) = O=C([C@@H]1C[C@@H](N[*:3])CN1[*:1])[*:2]; DOTA = O=C(O)CN1CCN(CC(=O)O)CCN(CC(=O)*)CCN(CC(=O)O)CC1; NODAGA = O=C(O)CN1CCN(CC(=O)O)CCN(C(CCC(=O)*)C(=O)O)CC1; N4Ac = bis-(2-amino-ethylamine)-methyl-propionic acid; 2Lut = 2,6-lutidylidene bridge between two thiols; Trp(5-Cl) = N[C@@H](Cc1c[nH]c2ccc(Cl)cc12)C(=O)O; Pyridine(2,6-diCH2) = c1cc(C[*:1])nc(C[*:2])c1; Trp(5-F) = N[C@@H](Cc1c[nH]c2ccc(F)cc12)C(=O)O; Trp(6-F) = N[C@@H](Cc1c[nH]c2cc(F)ccc12)C(=O)O; APAc = 4-amino-1-carboxymethylpiperidine; 1Nal = N[C@@H](Cc1cccc2ccccc12)C(=O)O; mXylylene = c1cc(C[*:1])cc(C[*:2])c1; LuDOTA = DOTA Lutetium(III) complex; Glutaryl = O=C(CCCC(=O)[*:2])[*:1]; AGLU = 1-amino-1-deoxy-D-glucitol; Hyp = O=C(O)[C@@H]1C[C@@H](O)CN1; Cysteamide = C(CS[*:3])N[*:1]; dGlu(AGLU) = not defined here; Suc = O=C(CCC(=O)[*:2])[*:1]; 2Lut(3) = 2,6-lutidylidene; hSer = N[C@@H](CCO)C(=O)O; Ac6c = NC1(C(=O)O)CCCCC1; Api = NC1(C(=O)O)CCNCC1; Thp = NC1(C(=O)O)CCOCC1; Aib = CC(C)(N)C(=O)O

Biological target: human Gastric Inhibitory Peptide Receptor (human) (UniProt P48546)
Sequence (P48546 22-466 limits assumed): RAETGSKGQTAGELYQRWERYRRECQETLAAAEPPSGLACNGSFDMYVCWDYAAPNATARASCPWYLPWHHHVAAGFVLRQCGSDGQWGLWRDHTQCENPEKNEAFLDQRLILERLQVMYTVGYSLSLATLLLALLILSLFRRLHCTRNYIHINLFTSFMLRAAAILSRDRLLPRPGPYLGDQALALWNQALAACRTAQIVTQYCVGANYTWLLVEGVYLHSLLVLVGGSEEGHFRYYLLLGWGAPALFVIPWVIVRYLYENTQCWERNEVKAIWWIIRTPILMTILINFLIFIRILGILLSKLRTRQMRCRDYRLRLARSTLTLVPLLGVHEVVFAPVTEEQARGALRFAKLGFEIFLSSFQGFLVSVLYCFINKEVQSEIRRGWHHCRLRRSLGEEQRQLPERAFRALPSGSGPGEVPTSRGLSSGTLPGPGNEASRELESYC
Assay: FACS competition with GIP-057 on CHO-K1-hGIPR cells; pIC50 category A: >8.0

Row | pIC50 [pic50] | Binder
1 | > 8 | {DOTA-dE(AGLU)}-DW[Trp(5-Cl)][Hyp]E[dL]C[Thp]LIC-{APAc-dE(AGLU)-NH2} (linker 7-11 via Pyridine(2,6-diCH2)) [DOTA-glu(AGLU)-Asp-Trp-5Clw-Hyp-Glu-leu-[Cys(2Lut)-Thp-Leu-Ile-Cys]-APAc-glu(AGLU)-NH2]
2 | > 8 | {DOTA-Ttds}-DW[Trp(5-Cl)]PE[dL]C[Thp]LI[Cysteamide] (linker (positions not given here) via mXylylene; not fully specified (bridges); printed as DOTA-Ttds-Asp-Trp-5Clw-Pro-Glu-leu-[Cys(3MeBn)-Thp-Leu-Ile-AET]) [DOTA-Ttds-Asp-Trp-5Clw-Pro-Glu-leu-[Cys(3MeBn)-Thp-Leu-Ile-AET]]
3 | > 8 | {DOTA-Ttds}-DW[Trp(5-Cl)]PE[dL]C[Api](DOTA)LI[Cysteamide] (linker (positions not given here) via mXylylene; not fully specified (bridges); printed as DOTA-Ttds-Asp-Trp-5Clw-Pro-Glu-leu-[Cys(3MeBn)-Apc(DOTA)-Leu-Ile-AET]) [DOTA-Ttds-Asp-Trp-5Clw-Pro-Glu-leu-[Cys(3MeBn)-Apc(DOTA)-Leu-Ile-AET]]
4 | > 8 | {AGLU-Glutaryl}-DW[Trp(5-Cl)][Pro(trans-4-NH2)]E[dL]C[Api]([Gly-NODAGA])LIC-{APAc-dE(AGLU)-NH2} (linker 7-11 via Pyridine(2,6-diCH2)) [AGLU-Glutar-Asp-Trp-5Clw-Tap-Glu-leu-[Cys(2Lut)-Apc(NODAGA-Gly)-Leu-Ile-Cys]-APAc-glu(AGLU)-NH2]
5 | > 8 | {DOTA-APAc″}-DW[Trp(5-Cl)]PE[dL]C[Aib]LI[Cysteamide] (linker 7-11 via mXylylene) [DOTA-APAc-Asp-Trp-5Clw-Pro-Glu-leu-[Cys(3MeBn)-Aib-Leu-Ile-AET]]
6 | > 8 | {DOTA-Ttds}-DW[Trp(5-Cl)]PE[dL]C[Api]LI[Cysteamide] (linker (positions not given here) via mXylylene; not fully specified (bridges); printed as DOTA-Ttds-Asp-Trp-5Clw-Pro-Glu-leu-[Cys(3MeBn)-Apc-Leu-Ile-AET]) [DOTA-Ttds-Asp-Trp-5Clw-Pro-Glu-leu-[Cys(3MeBn)-Apc-Leu-Ile-AET]]
7 | > 8 | {DOTA(In)-dE(AGLU)-APAc}-DW[Trp(5-Cl)][Hyp]E[dL]C[Thp]LIC-{APAc-dE(AGLU)-NH2} (linker 7-11 via Pyridine(2,6-diCH2)) [InDOTA-glu(AGLU)-APAc-Asp-Trp-5Clw-Hyp-Glu-leu-[Cys(2Lut)-Thp-Leu-Ile-Cys]-APAc-glu(AGLU)-NH2]
8 | > 8 | {EuDOTA-dGlu(AGLU)-APAc}-DW[Trp(5-Cl)][Hyp]E[dL]C[Thp]LIC-{APAc-dGlu(AGLU)-NH2} (linker 7-11 via 2Lut; reading uncertain; also: Eu complex of DOTA) [EuDOTA-glu(AGLU)-APAc-Asp-Trp-5Clw-Hyp-Glu-leu-[Cys(2Lut)-Thp-Leu-Ile-Cys]-APAc-glu(AGLU)-NH2]
9 | > 8 | {DOTA-Ttds}-DW[Trp(5-Cl)]PE[dL]C[Ac6c]LI[Cysteamide] (linker (positions not given here) via mXylylene; not fully specified (bridges); printed as DOTA-Ttds-Asp-Trp-5Clw-Pro-Glu-leu-[Cys(3MeBn)-Egz-Leu-Ile-AET]) [DOTA-Ttds-Asp-Trp-5Clw-Pro-Glu-leu-[Cys(3MeBn)-Egz-Leu-Ile-AET]]
10 | > 8 | {AGLU-Glutaryl-APAc}-DW[Trp(5-Cl)][Pro(trans-4-NH2)]E[dL]C[Api]LIC-{APAc-dE(AGLU)-NH2} (linker 7-11 via Pyridine(2,6-diCH2); not fully specified (residue 8); also: DOTA complexed with Lu (LuDOTA))
11 | > 8 | {AGLU-Glutaryl}-DW[Trp(5-Cl)][Pro(trans-4-NH2)]E[dL]C[Api](NOPO)LIC-{APAc-dE(AGLU)-NH2} (linker 7-11 via Pyridine(2,6-diCH2)) [AGLU-Glutar-Asp-Trp-5Clw-Tap-Glu-leu-[Cys(2Lut)-Apc(NOPO)-Leu-Ile-Cys]-APAc-glu(AGLU)-NH2]
12 | > 8 | {AGLU-Glutaryl-APAc}-DW[Trp(5-Cl)][Pro(trans-4-NH2)]E[dL]C[Api]LIC-{APAc-dE(AGLU)-NH2} (linker 7-11 via Pyridine(2,6-diCH2); not fully specified (residue 8); also: DOTA complexed with In (InDOTA))
13 | > 8 | Ac-D[Trp(6-F)][1Nal]PE[dL]C[Aib]LIC-{Ttds(4)-K(DOTA)-NH2} (linker 7-11 via mXylylene) [Ac-Asp-6Fw-1Ni-Pro-Glu-leu-[Cys(3MeBn)-Aib-Leu-Ile-Cys]-Ttds-Lys(DOTA)-NH2]
14 | > 8 | DW[Trp(5-Cl)][Pro(trans-4-NH2)]E[dL]C[Thp]LIC-{APAc-(dE)(AGLU)-NH2} (linker 7-11 via Pyridine(2,6-diCH2); not fully specified (N-terminus); printed as DOTA-PEG6-glu(AGLU)-Asp-Trp-5Clw-Tap-Glu-leu-[Cys(2Lut)-Thp-Leu-Ile-Cys]-APAc-glu(AGLU)-NH2) [DOTA-PEG6-glu(AGLU)-Asp-Trp-5Clw-Tap-Glu-leu-[Cys(2Lut)-Thp-Leu-Ile-Cys]-APAc-glu(AGLU)-NH2]
15 | > 8 | {LuDOTA-dE(AGLU)-APAc}-DW[Trp(5-Cl)][Hyp]E[dL]C[Thp]LIC-{APAc-dE(AGLU)-NH2} (linker 7-11 via Pyridine(2,6-diCH2)) [LuDOTA-glu(AGLU)-APAc-Asp-Trp-5Clw-Hyp-Glu-leu-[Cys(2Lut)-Thp-Leu-Ile-Cys]-APAc-glu(AGLU)-NH2]
16 | > 8 | {DOTA-Ttds}-DW[Trp(5-Cl)][Hyp]E[dL]C[Thp]LICK(DOTA)-NH2 (linker 7-11 via 2Lut(3)) [DOTA-Ttds-Asp-Trp-5Clw-Hyp-Glu-leu-[Cys(2Lut)-Thp-Leu-Ile-Cys]-Lys(DOTA)-NH2]
17 | > 8 | {AGLU-Glutaryl}-DW[Trp(5-Cl)][Pro(trans-4-NH2)]E[dL]C[Api](N4Ac)LIC-{APAc-dE(AGLU)-NH2} (linker 7-11 via Pyridine(2,6-diCH2)) [AGLU-Glutar-Asp-Trp-5Clw-Tap-Glu-leu-[Cys(2Lut)-Apc(N4Ac)-Leu-Ile-Cys]-APAc-glu(AGLU)-NH2]
18 | > 8 | Ac-D[Trp(5-F)][1Nal]PE[dL]C[Aib]LIC-{Ttds(4)-K(DOTA)-NH2} (linker 7-11 via mXylylene) [Ac-Asp-5Fw-1Ni-Pro-Glu-leu-[Cys(3MeBn)-Aib-Leu-Ile-Cys]-Ttds-Lys(DOTA)-NH2]

Continued, binder first:

Row | Binder | pIC50 [pic50]
19 | DW[Trp(5-Cl)][Pro(trans-4-NH2)]E[dL]C[Api]([Glutaryl-NH(1-deoxy-D-glucityl)])LIC-{APAc-(dE)(AGLU)-NH2} (linker 7-11 via Pyridine(2,6-diCH2); not fully specified (N-terminus); printed as DOTA-O2Oc-glu(AGLU)-Asp-Trp-5Clw-Tap-Glu-leu-[Cys(2Lut)-Apc(AGLU-Glutar)-Leu-Ile-Cys]-APAc-glu(AGLU)-NH2) | > 8
20 | {DOTA-dE(AGLU)-APAc}-DW[Trp(5-Cl)][Hyp]E[dL]C[Api]([Glutaryl-NH(1-deoxy-D-glucityl)])LIC-{APAc-dE(AGLU)-NH2} (linker 7-11 via Pyridine(2,6-diCH2)) | > 8
21 | {AGLU-Glutaryl}-DW[Trp(5-Cl)][Pro(trans-4-NH2)]E[dL]C[Api](GaNODAGA)LIC-{APAc-dE(AGLU)-NH2} (linker 7-11 via Pyridine(2,6-diCH2)) [AGLU-Glutar-Asp-Trp-5Clw-Tap-Glu-leu-[Cys(2Lut)-Apc(GaNODAGA)-Leu-Ile-Cys]-APAc-glu(AGLU)-NH2] | > 8
22 | {DOTA-dE(AGLU)}-DW[Trp(5-Cl)][Pro(trans-4-NH2)]E[dL]C[Api]([Glutaryl-NH(1-deoxy-D-glucityl)])LIC-{APAc-dE(AGLU)-NH2} (linker 7-11 via Pyridine(2,6-diCH2)) [DOTA-glu(AGLU)-Asp-Trp-5Clw-Tap-Glu-leu-[Cys(2Lut)-Apc(AGLU-Glutar)-Leu-Ile-Cys]-APAc-glu(AGLU)-NH2] | > 8
23 | {AGLU-Glutaryl-APAc}-DW[Trp(5-Cl)][Pro(trans-4-NH2)]E[dL]C[Api]LIC-{APAc-dE(AGLU)-NH2} (linker 7-11 via Pyridine(2,6-diCH2); not fully specified (residue 8); also: DOTA complexed with Ga (GaDOTA)) | > 8
24 | {AGLU-Glutaryl}-[hSer]W[Trp(5-Cl)][Pro(trans-4-NH2)]E[dL]C[Api](DOTA)LIC-{APAc-dE(AGLU)-NH2} (linker 7-11 via Pyridine(2,6-diCH2)) [AGLU-Glutar-Hse-Trp-5Clw-Tap-Glu-leu-[Cys(2Lut)-Apc(DOTA)-Leu-Ile-Cys]-APAc-glu(AGLU)-NH2] | > 8
25 | {DOTA-Ttds}-DW[Trp(5-Cl)][Hyp]E[dL]C[Api](DOTA)LICK(DOTA)-NH2 (linker 7-11 via 2Lut(3)) [DOTA-Ttds-Asp-Trp-5Clw-Hyp-Glu-leu-[Cys(2Lut)-Apc(DOTA)-Leu-Ile-Cys]-Lys(DOTA)-NH2] | > 8
26 | Suc-W[Trp(5-Cl)][Hyp]E[dL]C[Api]([Glutaryl-NH(1-deoxy-D-glucityl)])LIC-{APAc-Lys(DOTA)-NH2} (linker 6-10 via Pyridine(2,6-diCH2)) [HO-Succinyl-Trp-5Clw-Hyp-Glu-leu-[Cys(2Lut)-Apc(AGLU-Glutar)-Leu-Ile-Cys]-APAc-Lys(DOTA)-NH2] | > 8
27 | {AGLU-Glutaryl}-DW[Trp(5-Cl)][Pro(trans-4-NH2)]E[dL]C[Api](DOTA)LI[dC]-{APAc-dE(AGLU)-NH2} (linker 7-11 via Pyridine(2,6-diCH2)) [AGLU-Glutar-Asp-Trp-5Clw-Tap-Glu-leu-[Cys(2Lut)-Apc(DOTA)-Leu-Ile-cys]-APAc-glu(AGLU)-NH2] | > 8
28 | {AGLU-Glutaryl-APAc″}-DW[Trp(5-Cl)][Hyp]E[dL]C[Api](DOTA)LIC-{dE(AGLU)-NH2} (linker 7-11 via Pyridine(2,6-diCH2)) [AGLU-Glutar-APAc-Asp-Trp-5Clw-Hyp-Glu-leu-[Cys(2Lut)-Apc(DOTA)-Leu-Ile-Cys]-glu(AGLU)-NH2] | > 8
29 | {AGLU-Glutaryl-APAc}-DW[Trp(5-Cl)][Hyp]E[dL]C[Api]LIC-{APAc-dE(AGLU)-NH2} (linker 7-11 via Pyridine(2,6-diCH2); not fully specified (residue 8)) | > 8
30 | {DOTA-Ttds}-DW[Trp(5-Cl)][Pro(trans-4-NH2)](DOTA)E[dL]C[Api](DOTA)LICK(DOTA)-NH2 (linker 7-11 via Pyridine(2,6-diCH2)) [DOTA-Ttds-Asp-Trp-5Clw-Tap(DOTA)-Glu-leu-[Cys(2Lut)-Apc(DOTA)-Leu-Ile-Cys]-Lys(DOTA)-NH2] | > 8
31 | DWXXEXCXLIC (N-term AGLU-Glutar; 5Clw; Hyp; leu (D-Leu); thioether cycle [Cys(2Lut)..Cys]; Apc(GaDOTA); C-term APAc-glu(AGLU)-NH2) [AGLU-Glutar-Asp-Trp-5Clw-Hyp-Glu-leu-[Cys(2Lut)-Apc(GaDOTA)-Leu-Ile-Cys]-APAc-glu(AGLU)-NH2] | > 8
